This note sets out measurements from patent US20160145325A1 (AGROSAVFE N V, published 2016).

The test has as its target T1, potato lectin (Solanum Tuberosum Lectin, Vector labs, cat#: L-1160) (Solanum tuberosum (potato), UniProt Q9S8M0 23-323).
T1 construct: Bought glycoprotein coated on ELISA wells as an unrelated control compound
T1 sequence: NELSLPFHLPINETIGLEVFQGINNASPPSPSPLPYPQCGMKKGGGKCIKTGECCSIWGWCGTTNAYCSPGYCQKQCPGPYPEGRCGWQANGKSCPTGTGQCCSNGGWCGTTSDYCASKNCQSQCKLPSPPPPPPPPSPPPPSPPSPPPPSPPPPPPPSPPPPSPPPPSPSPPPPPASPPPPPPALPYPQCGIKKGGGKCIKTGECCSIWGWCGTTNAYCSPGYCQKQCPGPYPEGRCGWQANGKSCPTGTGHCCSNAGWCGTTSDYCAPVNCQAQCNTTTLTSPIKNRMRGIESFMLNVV
Description: ELISA, purified VHH on wells coated with potato lectin, OD 405 nm. (An ELISA detects its analyte on a solid surface through an enzyme-linked reagent.)

B1: anti-GlcCer VHH 41D01 (VHH)
VHH: QVQLQESGGGLVQAGGSLRLSCAASGRTFSRYGMGWFRQLPGKQRELVTSITRGGTTTYADSVKGRFTISRDNAKNTVYLQMNSLKPEDTAVYYCNARSIWRDYWGQGTQVTVSS
notes: Llama VHH raised against fungal glucosylceramide, made in E. coli and purified through its hexahistidine tag; Tested as purified VHH at 0.1 ug/ml; also called GlcCer-specific VHH 41D01; not shown: C-terminal (His)6 and c-myc peptide tags coded by vector pASF20
Regarding B1, the binding result is recorded as “no binding (tested: 0.1 µg/ml)”.

B2: anti-GlcCer VHH 56F11 (VHH)
VHH: QVQLQESGGGLVQSGGSLRLSCVHSKTTFTRNAMGWYRQALGKERELVATITSGGTTNYADSVKGRFTISMDSAKNTVYLQMNSLKPEDTAVYYCNVNTRRIFGGTVREYWGQGTQVTVSS
notes: Llama VHH raised against fungal glucosylceramide, made in E. coli and purified through its hexahistidine tag; Tested as purified VHH at 1 ug/ml; not shown: C-terminal (His)6 and c-myc peptide tags coded by vector pASF20
For the molecule B2, the binding result was “no binding (tested: 1 µg/ml)”.
